3 substances from patent US20190211082A1 can be followed below.

The target in experiment [1] is humanized monoclonal IgG (anti-IgE monoclonal antibody, "Xolair" manufactured by Novartis AG; generic name Omalizumab). Nature of the experiment: affinity chromatography, 1 mg IgG on 1 mL column, linear pH gradient 5.0 to 2.4 in 100 mM citrate buffer, pH at elution position.
For experiment [2] the target is unchanged. Nature of the experiment: affinity chromatography, 1 mg IgG on 1 mL column, linear pH gradient 5.0 to 3.0 in 100 mM acetate buffer, pH at elution position.
For experiment [3], the target named is Fab fragment (IgG-Fab) derived from anti-IgE monoclonal antibody Omalizumab ("Xolair" manufactured by Novartis AG), made by papain digestion. Nature of the experiment: affinity chromatography, 1 mg Fab on 1 mL column, linear pH gradient 5.0 to 3.0 in 100 mM acetate buffer, pH at elution peak top, 25 °C.
The target is the same in experiment [4]. Nature of the experiment: affinity chromatography, 1 mg Fab on 1 mL column, linear pH gradient 5.0 to 2.4 in 100 mM citrate buffer, pH at elution peak top, 25 °C.

In turn, “Protein A ligand of the commercially available Protein A carrier "HiTrap MabSelect SuRe" manufactured by GE Healthcare” came in with an Antibody elution pH (100 mM citrate buffer) in experiment [1] of 3.53 pH. The substance also displayed an Antibody elution pH (100 mM acetate buffer) in experiment [2] of 3.64 pH.

“Protein L ligand of the commercially available affinity separation matrix "HiTrap Protein L 1 mL-gel" manufactured by GE Healthcare” registered an Antibody elution pH (100 mM acetate buffer) in experiment [3] of 3.6 pH. Also, the Antibody elution pH (100 mM citrate buffer) in experiment [4] turned out to be 2.93 pH.

On to “VL-κ-binding peptide of Experimental product A: 4 VL-κ-binding domains (SEQ ID NO: 2) of wild Protein L of Peptostreptococcus magnus 312 strain bound through the peptides that connect domains in SEQ ID NO: 1, with an active group for immobilization at the C-terminal (designed binder)”, for which, in experiment [3], the Antibody elution pH (100 mM acetate buffer) was determined as 3.47 pH. In experiment [4], this substance showed an Antibody elution pH (100 mM citrate buffer) of 2.71 pH.
